Laboratory results: publication PMC12141716, “An archaeal nucleoid-associated protein binds an essential motif in DNA replication origins” (Nature Communications, 2025)

Target: T1, UBP (Sulfolobus islandicus REY15A, UniProt F0NFD3 1-111)
T1 sequence: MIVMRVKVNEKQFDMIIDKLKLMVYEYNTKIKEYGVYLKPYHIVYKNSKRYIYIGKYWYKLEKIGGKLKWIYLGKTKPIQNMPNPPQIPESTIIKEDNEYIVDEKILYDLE
Test: thermal melting protection; 55-65 C, 50 mM NaCl; EMSA: 50 mM K-acetate, 20 mM Tris-acetate, 10 mM Mg-acetate, 1 mM DTT, pH 7.9, 5-10% glycerol, 70 mM NaCl, 800 ng salmon sperm DNA per 10 ul, room temperature 10 min; footprinting same buffer, 4% glycerol, 8000 ng salmon sperm DNA; pull-down 25 mM HEPES pH 7.5, 150 mM NaCl, 10 mM MgCl, 100 uM ZnCl, 10 mM DTT, 48 C
Conditions: protein: recombinant; tags: MBP tag removed by Factor Xa; 3 extra vector residues at N-terminus; chain copies: 2; label: 5'-32P; 40 bp duplex with 10 nt C overhangs at 5' and 3' of strand 2

B1: 40 bp duplex for melting (P19/P20) (dsDNA)
DNA 1: ATAATTAGATAACCATTATACAAAAGAATTGTATAAGAAT
DNA 2: CCCCCCCCCCATTCTTATACAATTCTTTTGTATAATGGTTATCTAATTATCCCCCCCCCC
  binding result: binds
